Data as given in EP2848684A1.

Target: NifDK complex purified from Azotobacter vinelandii (Azotobacter vinelandii) (UniProt P07328)
Experiment: cell-based or functional assay

Sequence of UniProt P07328 (P07328 2-492 limits assumed, chain 1 of 2): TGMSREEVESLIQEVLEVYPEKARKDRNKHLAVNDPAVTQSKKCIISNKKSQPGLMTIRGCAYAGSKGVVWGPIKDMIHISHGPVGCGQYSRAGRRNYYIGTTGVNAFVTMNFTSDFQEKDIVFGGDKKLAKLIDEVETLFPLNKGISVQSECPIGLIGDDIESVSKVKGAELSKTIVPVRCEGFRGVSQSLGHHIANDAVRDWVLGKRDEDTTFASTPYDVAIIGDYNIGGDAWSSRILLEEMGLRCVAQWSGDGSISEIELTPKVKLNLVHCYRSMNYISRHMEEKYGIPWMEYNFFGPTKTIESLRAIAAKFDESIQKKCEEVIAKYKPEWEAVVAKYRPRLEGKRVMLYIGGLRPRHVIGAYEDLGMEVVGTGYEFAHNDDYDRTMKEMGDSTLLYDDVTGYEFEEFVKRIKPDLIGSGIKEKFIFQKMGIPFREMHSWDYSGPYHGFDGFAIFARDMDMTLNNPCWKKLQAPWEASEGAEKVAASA
Sequence of UniProt P07328 (P07329 2-523 limits assumed, chain 2 of 2, further chain): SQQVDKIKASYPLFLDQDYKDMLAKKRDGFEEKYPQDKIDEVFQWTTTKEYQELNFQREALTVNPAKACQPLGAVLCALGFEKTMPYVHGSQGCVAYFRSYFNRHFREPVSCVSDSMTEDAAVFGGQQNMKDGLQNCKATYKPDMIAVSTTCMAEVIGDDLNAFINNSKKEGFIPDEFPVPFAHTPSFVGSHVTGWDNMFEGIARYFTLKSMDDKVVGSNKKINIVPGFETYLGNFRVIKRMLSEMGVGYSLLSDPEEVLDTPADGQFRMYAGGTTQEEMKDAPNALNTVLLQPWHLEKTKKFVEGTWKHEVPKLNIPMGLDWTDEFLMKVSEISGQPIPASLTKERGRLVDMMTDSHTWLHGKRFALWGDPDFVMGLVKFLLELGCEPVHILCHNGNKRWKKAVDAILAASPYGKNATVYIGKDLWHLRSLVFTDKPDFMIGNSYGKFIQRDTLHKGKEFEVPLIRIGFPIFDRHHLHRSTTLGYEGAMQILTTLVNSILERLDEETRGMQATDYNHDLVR

Substance | Ammonia [nmol/mL] | RFU (Relative Fluorescence Units, ammonia detection) [RFU]
NifH protein purified from Azotobacter vinelandii (from UniProt P00459 2-290) (enzyme) | 179 | 1300
NifH purified from recombinant Saccharomyces cerevisiae GF2 cells (mlsSOD2-his8-NifH, A. vinelandii NifH sequence) (from UniProt P00459 1-290) (enzyme) | 200 | 1460
